In one experiment the target is T1, human PAR2 (Homo sapiens, UniProt P55085).
T1 construct: expressed in transfected cells; host or cells: COS-1
T1 sequence (P55085 with tags, fused parts or gaps limits assumed): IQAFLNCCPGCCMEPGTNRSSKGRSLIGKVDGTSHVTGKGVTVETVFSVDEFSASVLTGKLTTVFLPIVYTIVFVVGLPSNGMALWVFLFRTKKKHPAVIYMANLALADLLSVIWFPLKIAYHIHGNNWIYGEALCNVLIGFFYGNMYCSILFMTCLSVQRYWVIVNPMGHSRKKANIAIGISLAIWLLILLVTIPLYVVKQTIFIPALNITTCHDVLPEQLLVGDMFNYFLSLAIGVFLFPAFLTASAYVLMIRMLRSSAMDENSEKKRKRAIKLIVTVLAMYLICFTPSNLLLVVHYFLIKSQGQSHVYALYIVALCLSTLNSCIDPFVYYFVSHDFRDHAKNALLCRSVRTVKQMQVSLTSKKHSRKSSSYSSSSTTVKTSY
In words: Release of N-terminal BAB motif from PAR2 on COS-1 cells. It counts as cell-based. The conditions noted are these: 0.1 and 0.5 units per ml, 37°C, 30 minutes. An excerpt: The biarsenical fluorochrome binding domain (BAB), containing a tetra-cysteine motif, […] for PAR1, […] for PAR2 and […] for PAR4 was inserted into the receptor N-terminal domains by introducing corresponding oligonucleotides just downstream of the signal peptide of PARs, after A26 for human PAR1, Q27 for human PAR2 and V25 for human PAR4. The PAR DNA constructs containing the N-terminal BAB domain and a YFP C-terminal fluorochrome tag were cloned in pCDNA3.1+ at the restriction enzyme sites between Eco RI and Xba I. COS-1 cells obtained from ATCC (Manassas, VA USA) were transected with the PAR constructs with the FuGENE6 transfection reagent (Roche Applied Bioscience). The expression level of the expressed receptor was quantified using a fluorescence plate reader, (Victor 4X, Perkin-Elmer), and confocal microscopy was used to monitor the receptor location by visualizing the receptor YFP tag. […] Then, the peptide(s) containing the receptor BAB tetracysteine motif released by proteinases from the receptor N-terminus into the cell culture supernatant was quantified using a Victor X4 fluorescent plate reader with an excitation wavelength of 540 nm and an emission wavelength monitored at 615 nm. […]

In experiment [1] the test system is rat PAR2-expressing KNRK cells. In words: P44/42 ERK/MAP kinase activation in rat PAR2-expressing KNRK cells. It counts as cell-based. As to conditions: ISP1 for 10 min. Here is the method: Western blot detection of P44/42 ERK was performed essentially as described. In brief, KNRK cells that had been transfected with the PAR2 expressing construct (PAR2 -KNRK) or empty vector (pcDNA3-KNRK) were serum starved and stimulated with ISP1 for 10 min. Cells were placed on ice and agonists were removed prior to lysis with cold lysis buffer (Roche). Protein samples were boiled for 10 min in Laemelis buffer and resolved on SDS-PAGE gels. Activation of MAP Kinase was monitored by immunoblotting with phospho-specific ERK antibodies (Cell signaling) and relative increases in ERK phosphorylation was quantified relative to total ERK signal detected in the same samples. As a positive control cells were activated with SLIGRL-NH2 that causes a PAR2-mediated increase in MAPkinase phosphorylation.

Entries after “also recorded” stand apart in the source; their conditions may differ.

B1: ISP1: recombinant implantation serine proteinase 1 expressed in Pichia pastoris, also known as Mouse Prss28 (protein, UniProt Q924N9 27-274, looked up)
Serine protease 28: KPVGIVGGQRTPPGKWPWQVSLRMYSYEVNSWVHICGGSIIHPQWILTAAHCIQSQDADPAVYRVQVGEVYLYKEQELLNISRIIIHPDYNDVSKRFDLALMQLTALLVTSTNVSPVSLPKDSSTFDSTDQCWLVGWGNLLQRVPLQPPYQLHEVKIPIQDNKSCKRAYRKKSSDEHKAVAIFDDMLCAGTSGRGPCFGDSGGPLVCWKSNKWIQVGVVSKGIDCSNNLPSIFSRVQSSLAWIHQHIQ
modifications: recombinant, Pichia pastoris-expressed
notes: recombinant implantation serine proteinase 1 expressed in Pichia pastoris, also known as Mouse Prss28
With B1, the “Release of PAR2 N-terminal BAB domain (PAR cleavage activity)” value with human PAR2 is “significant concentration-dependent PAR cleavage activity”. For the same molecule, the “Phosphorylation status of ERK via MAP kinase activation” value in experiment [1] is on record as “No change in phosphorylation status of ERK; also recorded: No activation of ERK”.
